Assay results published in article doi:10.1101/2021.08.17.456605.

Key:
[1] = molecular target: Heimdallarchaeota AB125 Vps22 (HeimAB125_14050) (Heimdallarchaeota AB125); assay: SEC-MALS
[2] = molecular target: Heimdallarchaeota AB125 Vps22 (HeimAB125_14050) (Heimdallarchaeota AB125); assay: cross-linking
[3] = molecular target: Odinarchaeota LCB_4 Vps23(TSG101) (Odinarchaeota archaeon LCB_4); assay: SEC-MALS

Which stoichiometry N [1] does the source give for “Heimdallarchaeota AB125 Vps22 (HeimAB125_14050) (natural protein)” here?
Its stoichiometry N is 2.

What about the stoichiometry N [2] of the same substance?
The stoichiometry N was 2.

For “Odinarchaeota LCB_4 Vps23(TSG101) (natural protein)”, which stoichiometry N [3] is on record?
Its stoichiometry N is 2.

“Odinarchaeota LCB_4 Vps28 (natural protein)” was tested. Which stoichiometry N (Vps28 per Vps23 dimer) [3] did it give?
The stoichiometry N (Vps28 per Vps23 dimer) was 1.
